Starred links: 1 amine or outer side, 2 acyl side, 3 side chain; linkers in the order of their positions; H or OH if unused. Non-standard residues stand in square brackets, D forms with d. Groups on a side chain read outwards from the residue. No end group written: not given here. *: point of attachment. C20 diacid = O=C(O)CCCCCCCCCCCCCCCCCCC(=O)*; C18 diacid = O=C(O)CCCCCCCCCCCCCCCCC(=O)*; γGlu = O=C(O)[C@H](CCC(=O)[*:2])N[*:1]; Palmitoyl = CCCCCCCCCCCCCCCC(=O)*; AEEA = NCCOCCOCC(=O)O; Aib = CC(C)(N)C(=O)O
biological target: human corticotropin-releasing factor 2α (CRF2 α receptor) (human), Q13324; experiment: cell-based or functional assay
Sequence (Q13324 20-411): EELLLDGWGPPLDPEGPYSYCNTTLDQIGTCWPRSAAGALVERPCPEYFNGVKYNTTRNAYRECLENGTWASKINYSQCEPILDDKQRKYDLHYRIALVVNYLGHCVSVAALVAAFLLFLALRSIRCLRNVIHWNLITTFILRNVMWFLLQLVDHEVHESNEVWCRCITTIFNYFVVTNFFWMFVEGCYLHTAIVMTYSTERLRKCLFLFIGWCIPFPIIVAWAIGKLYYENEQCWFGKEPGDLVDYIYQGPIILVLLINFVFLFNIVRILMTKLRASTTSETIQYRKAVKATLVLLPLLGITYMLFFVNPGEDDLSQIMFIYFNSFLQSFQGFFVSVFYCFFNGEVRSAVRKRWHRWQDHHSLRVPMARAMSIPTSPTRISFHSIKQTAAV

Binder | EC50 [nM], 0% HSA [nM] | EC50 [nM], 0.1% HSA [nM]
Ac-IVLSLD[dV]PIKLK([AEEA-AEEA-γGlu-C18 diacid])QILLEQERQE[Aib]QREQAEKNEQILEQV-NH2 (SMILES CC[C@H](C)[C@H](NC(C)=O)C(=O)N[C@H](C(=O)N[C@@H](CC(C)C)C(=O)N[C@@H](CO)C(=O)N[C@@H](CC(C)C)C(=O)N[C@@H](CC(=O)O)C(=O)N[C@@H](C(=O)N1CCC[C@H]1C(=O)N[C@H](C(=O)N[C@@H](CCCCN)C(=O)N[C@@H](CC(C)C)C(=O)N[C@@H](CCCCNC(=O)COCCOCCNC(=O)COCCOCCNC(=O)CC[C@H](NC(=O)CCCCCCCCCCCCCCCCC(=O)O)C(=O)O)C(=O)N[C@@H](CCC(N)=O)C(=O)N[C@H](C(=O)N[C@@H](CC(C)C)C(=O)N[C@@H](CC(C)C)C(=O)N[C@@H](CCC(=O)O)C(=O)N[C@@H](CCC(N)=O)C(=O)N[C@@H](CCC(=O)O)C(=O)N[C@@H](CCCNC(=N)N)C(=O)N[C@@H](CCC(N)=O)C(=O)N[C@@H](CCC(=O)O)C(=O)NC(C)(C)C(=O)N[C@@H](CCC(N)=O)C(=O)N[C@@H](CCCNC(=N)N)C(=O)N[C@@H](CCC(=O)O)C(=O)N[C@@H](CCC(N)=O)C(=O)N[C@@H](C)C(=O)N[C@@H](CCC(=O)O)C(=O)N[C@@H](CCCCN)C(=O)N[C@@H](CC(N)=O)C(=O)N[C@@H](CCC(=O)O)C(=O)N[C@@H](CCC(N)=O)C(=O)N[C@H](C(=O)N[C@@H](CC(C)C)C(=O)N[C@@H](CCC(=O)O)C(=O)N[C@@H](CCC(N)=O)C(=O)N[C@H](C(N)=O)C(C)C)[C@@H](C)CC)[C@@H](C)CC)[C@@H](C)CC)C(C)C)C(C)C) [SEQ ID NO: 169] | 4.01 | 98.1
Ac-IVLSLD[dV]PIELK([AEEA-AEEA-γGlu-C18 diacid])QILLEQERQK[Aib]QREQAEKNEQILEQV-NH2 (SMILES CC[C@H](C)[C@H](NC(C)=O)C(=O)N[C@H](C(=O)N[C@@H](CC(C)C)C(=O)N[C@@H](CO)C(=O)N[C@@H](CC(C)C)C(=O)N[C@@H](CC(=O)O)C(=O)N[C@@H](C(=O)N1CCC[C@H]1C(=O)N[C@H](C(=O)N[C@@H](CCC(=O)O)C(=O)N[C@@H](CC(C)C)C(=O)N[C@@H](CCCCNC(=O)COCCOCCNC(=O)COCCOCCNC(=O)CC[C@H](NC(=O)CCCCCCCCCCCCCCCCC(=O)O)C(=O)O)C(=O)N[C@@H](CCC(N)=O)C(=O)N[C@H](C(=O)N[C@@H](CC(C)C)C(=O)N[C@@H](CC(C)C)C(=O)N[C@@H](CCC(=O)O)C(=O)N[C@@H](CCC(N)=O)C(=O)N[C@@H](CCC(=O)O)C(=O)N[C@@H](CCCNC(=N)N)C(=O)N[C@@H](CCC(N)=O)C(=O)N[C@@H](CCCCN)C(=O)NC(C)(C)C(=O)N[C@@H](CCC(N)=O)C(=O)N[C@@H](CCCNC(=N)N)C(=O)N[C@@H](CCC(=O)O)C(=O)N[C@@H](CCC(N)=O)C(=O)N[C@@H](C)C(=O)N[C@@H](CCC(=O)O)C(=O)N[C@@H](CCCCN)C(=O)N[C@@H](CC(N)=O)C(=O)N[C@@H](CCC(=O)O)C(=O)N[C@@H](CCC(N)=O)C(=O)N[C@H](C(=O)N[C@@H](CC(C)C)C(=O)N[C@@H](CCC(=O)O)C(=O)N[C@@H](CCC(N)=O)C(=O)N[C@H](C(N)=O)C(C)C)[C@@H](C)CC)[C@@H](C)CC)[C@@H](C)CC)C(C)C)C(C)C) [SEQ ID NO: 168] | 13.9 | 
IVLSLD[dV]PTKLK([γGlu-Palmitoyl])QKLLKQERQRK[Aib]REQAEKNKRILERV-NH2 (N-terminus assumed; SMILES CCCCCCCCCCCCCCCC(=O)N[C@@H](CCC(=O)NCCCC[C@H](NC(=O)[C@H](CC(C)C)NC(=O)[C@H](CCCCN)NC(=O)[C@@H](NC(=O)[C@@H]1CCCN1C(=O)[C@H](NC(=O)[C@H](CC(=O)O)NC(=O)[C@H](CC(C)C)NC(=O)[C@H](CO)NC(=O)[C@H](CC(C)C)NC(=O)[C@@H](NC(=O)[C@@H](N)[C@@H](C)CC)C(C)C)C(C)C)[C@@H](C)O)C(=O)N[C@@H](CCC(N)=O)C(=O)N[C@@H](CCCCN)C(=O)N[C@@H](CC(C)C)C(=O)N[C@@H](CC(C)C)C(=O)N[C@@H](CCCCN)C(=O)N[C@@H](CCC(N)=O)C(=O)N[C@@H](CCC(=O)O)C(=O)N[C@@H](CCCNC(=N)N)C(=O)N[C@@H](CCC(N)=O)C(=O)N[C@@H](CCCNC(=N)N)C(=O)N[C@@H](CCCCN)C(=O)NC(C)(C)C(=O)N[C@@H](CCCNC(=N)N)C(=O)N[C@@H](CCC(=O)O)C(=O)N[C@@H](CCC(N)=O)C(=O)N[C@@H](C)C(=O)N[C@@H](CCC(=O)O)C(=O)N[C@@H](CCCCN)C(=O)N[C@@H](CC(N)=O)C(=O)N[C@@H](CCCCN)C(=O)N[C@@H](CCCNC(=N)N)C(=O)N[C@H](C(=O)N[C@@H](CC(C)C)C(=O)N[C@@H](CCC(=O)O)C(=O)N[C@@H](CCCNC(=N)N)C(=O)N[C@H](C(N)=O)C(C)C)[C@@H](C)CC)C(=O)O) [SEQ ID NO: 20] | 0.01 | 

Other lines, results leading:

EC50 [nM], 0% HSA [nM] | EC50 [nM], 0.1% HSA [nM] | Binder
0.04 | 2.76 | IVLSLD[dV]PIKLK([AEEA-AEEA-γGlu-γGlu-C20 diacid])QILLKQERQK[Aib]QREQAEKNKQILAQV-NH2 (N-terminus assumed; SMILES CC[C@H](C)[C@H](N)C(=O)N[C@H](C(=O)N[C@@H](CC(C)C)C(=O)N[C@@H](CO)C(=O)N[C@@H](CC(C)C)C(=O)N[C@@H](CC(=O)O)C(=O)N[C@@H](C(=O)N1CCC[C@H]1C(=O)N[C@H](C(=O)N[C@@H](CCCCN)C(=O)N[C@@H](CC(C)C)C(=O)N[C@@H](CCCCNC(=O)COCCOCCNC(=O)COCCOCCNC(=O)CC[C@H](NC(=O)CC[C@H](NC(=O)CCCCCCCCCCCCCCCCCCC(=O)O)C(=O)O)C(=O)O)C(=O)N[C@@H](CCC(N)=O)C(=O)N[C@H](C(=O)N[C@@H](CC(C)C)C(=O)N[C@@H](CC(C)C)C(=O)N[C@@H](CCCCN)C(=O)N[C@@H](CCC(N)=O)C(=O)N[C@@H](CCC(=O)O)C(=O)N[C@@H](CCCNC(=N)N)C(=O)N[C@@H](CCC(N)=O)C(=O)N[C@@H](CCCCN)C(=O)NC(C)(C)C(=O)N[C@@H](CCC(N)=O)C(=O)N[C@@H](CCCNC(=N)N)C(=O)N[C@@H](CCC(=O)O)C(=O)N[C@@H](CCC(N)=O)C(=O)N[C@@H](C)C(=O)N[C@@H](CCC(=O)O)C(=O)N[C@@H](CCCCN)C(=O)N[C@@H](CC(N)=O)C(=O)N[C@@H](CCCCN)C(=O)N[C@@H](CCC(N)=O)C(=O)N[C@H](C(=O)N[C@@H](CC(C)C)C(=O)N[C@@H](C)C(=O)N[C@@H](CCC(N)=O)C(=O)N[C@H](C(N)=O)C(C)C)[C@@H](C)CC)[C@@H](C)CC)[C@@H](C)CC)C(C)C)C(C)C) [SEQ ID NO: 172]
62.1 |  | Ac-IVLSLD[dV]PIELK([AEEA-AEEA-γGlu-C18 diacid])QILLEQERQE[Aib]QREQAEKNEQILEQV-NH2 (SMILES CC[C@H](C)[C@H](NC(C)=O)C(=O)N[C@H](C(=O)N[C@@H](CC(C)C)C(=O)N[C@@H](CO)C(=O)N[C@@H](CC(C)C)C(=O)N[C@@H](CC(=O)O)C(=O)N[C@@H](C(=O)N1CCC[C@H]1C(=O)N[C@H](C(=O)N[C@@H](CCC(=O)O)C(=O)N[C@@H](CC(C)C)C(=O)N[C@@H](CCCCNC(=O)COCCOCCNC(=O)COCCOCCNC(=O)CC[C@H](NC(=O)CCCCCCCCCCCCCCCCC(=O)O)C(=O)O)C(=O)N[C@@H](CCC(N)=O)C(=O)N[C@H](C(=O)N[C@@H](CC(C)C)C(=O)N[C@@H](CC(C)C)C(=O)N[C@@H](CCC(=O)O)C(=O)N[C@@H](CCC(N)=O)C(=O)N[C@@H](CCC(=O)O)C(=O)N[C@@H](CCCNC(=N)N)C(=O)N[C@@H](CCC(N)=O)C(=O)N[C@@H](CCC(=O)O)C(=O)NC(C)(C)C(=O)N[C@@H](CCC(N)=O)C(=O)N[C@@H](CCCNC(=N)N)C(=O)N[C@@H](CCC(=O)O)C(=O)N[C@@H](CCC(N)=O)C(=O)N[C@@H](C)C(=O)N[C@@H](CCC(=O)O)C(=O)N[C@@H](CCCCN)C(=O)N[C@@H](CC(N)=O)C(=O)N[C@@H](CCC(=O)O)C(=O)N[C@@H](CCC(N)=O)C(=O)N[C@H](C(=O)N[C@@H](CC(C)C)C(=O)N[C@@H](CCC(=O)O)C(=O)N[C@@H](CCC(N)=O)C(=O)N[C@H](C(N)=O)C(C)C)[C@@H](C)CC)[C@@H](C)CC)[C@@H](C)CC)C(C)C)C(C)C) [SEQ ID NO: 170]
0.17 | 2.62 | IVLSLD[dV]PIKLK([AEEA-AEEA-γGlu-γGlu-C18 diacid])QILLKQERQK[Aib]QREQAEKNKQILAQV-NH2 (N-terminus assumed; SMILES CC[C@H](C)[C@H](N)C(=O)N[C@H](C(=O)N[C@@H](CC(C)C)C(=O)N[C@@H](CO)C(=O)N[C@@H](CC(C)C)C(=O)N[C@@H](CC(=O)O)C(=O)N[C@@H](C(=O)N1CCC[C@H]1C(=O)N[C@H](C(=O)N[C@@H](CCCCN)C(=O)N[C@@H](CC(C)C)C(=O)N[C@@H](CCCCNC(=O)COCCOCCNC(=O)COCCOCCNC(=O)CC[C@H](NC(=O)CC[C@H](NC(=O)CCCCCCCCCCCCCCCCC(=O)O)C(=O)O)C(=O)O)C(=O)N[C@@H](CCC(N)=O)C(=O)N[C@H](C(=O)N[C@@H](CC(C)C)C(=O)N[C@@H](CC(C)C)C(=O)N[C@@H](CCCCN)C(=O)N[C@@H](CCC(N)=O)C(=O)N[C@@H](CCC(=O)O)C(=O)N[C@@H](CCCNC(=N)N)C(=O)N[C@@H](CCC(N)=O)C(=O)N[C@@H](CCCCN)C(=O)NC(C)(C)C(=O)N[C@@H](CCC(N)=O)C(=O)N[C@@H](CCCNC(=N)N)C(=O)N[C@@H](CCC(=O)O)C(=O)N[C@@H](CCC(N)=O)C(=O)N[C@@H](C)C(=O)N[C@@H](CCC(=O)O)C(=O)N[C@@H](CCCCN)C(=O)N[C@@H](CC(N)=O)C(=O)N[C@@H](CCCCN)C(=O)N[C@@H](CCC(N)=O)C(=O)N[C@H](C(=O)N[C@@H](CC(C)C)C(=O)N[C@@H](C)C(=O)N[C@@H](CCC(N)=O)C(=O)N[C@H](C(N)=O)C(C)C)[C@@H](C)CC)[C@@H](C)CC)[C@@H](C)CC)C(C)C)C(C)C) [SEQ ID NO: 171]

Reference: US12679878B2, “CRF2 receptor agonists and their use in therapy” (SANOFI, priority 2020, dated 2026)
